{"source": "patent US10632208B2", "about": "“Peptide-mediated drug delivery across epithelial barrier” (Purdue Research Foundation, priority 2017, dated 2020)", "molecules": {"B1": {"name": "LAP: Listeria adhesion protein, alcohol acetaldehyde dehydrogenase of Listeria monocytogenes, 866 aa, 94 kDa; recombinant, histidine-tagged form SEQ ID NO: 10 (protein)", "chain": "MAIKENAAQEVLEVQKVIDRLADNGQKALKAFESYNQEQVDNIVHAMALAGLDQHMPLAKLAVEETGRGLYEDKCIKNIFATEYIWNNIKNNKTVGVINEDVQTGVIEIAEPVGVVAGVTPVTNPTSTTLFKAIIAIKTRNPIIFAFHPSAQRCSSAAAKVVYDAAIAAGAPEHCIQWVEKPSLEATKQLMNHDKVALVLATGGAGMVKSAYSTGKPALGVGPGNVPAYIDKTAKIKRSVNDIILSKSFDQGMICASEQAVIVDKEVAKEVKAEMEANKCYFVKGAEFKKLESYVINPEKGTLNPDVVGKSPAWIANQAGFKVPEDTKILVAEIKGVGDKYPLSHEKLSPVLAFIEAANQAEAFDRCEEMLVYGGLGHSAVIHSTDKEVQKAFGIRMKACRIIVNAPSAQGGIGDIYNGFIPSLTLGCGSYGKNSVSQNVSATNLLNVKRIADRRNNMQWFKLPPKIFFEKYSTQYLQKMEGVERVFIVTDPGMGSFKYVDVVIEHLKKRGNDVAYQVFADVEPDPSDVTVYKGAELMKDFKPDTIIALGGGSAMDAAKGMWLFYEHPEASFFGLKQKFLDIRKRTFKYPKLGGKAKFVAIPTTSGTGSEVTPFAVITDKENNIKYPLADYELTPDVAIVDAQYVTTVPAHITADTGMDVLTHAIESYVSVMASDYTRGLSIRAIELVFENLRESVLTGDPDAREKMHNASALAGMAFANAFLGINHSLAHKIGPEFHIPHGRANAILMPHVIRYNALKPKKHALFPRYESFRADEDYARISRIIGFPAATTEEGVKSLVDEIIKLGKDVGIDMSLKGQNVAKKDLDAVVDTLADRAFMDQCTTANPKQPLVSELKEIYLEAYKGV", "modifications": "Listeria monocytogenes"}}, "key": {"Hsp60 / IKK-β": {"biological_target": "T1, Hsp60 / IKK-β (Homo sapiens, UniProt P10809)", "T1 construct": "endogenous in cells; host or cells: Caco-2 (human colon carcinoma, ATCC HTB37)", "T1 sequence (P10809 27-573)": "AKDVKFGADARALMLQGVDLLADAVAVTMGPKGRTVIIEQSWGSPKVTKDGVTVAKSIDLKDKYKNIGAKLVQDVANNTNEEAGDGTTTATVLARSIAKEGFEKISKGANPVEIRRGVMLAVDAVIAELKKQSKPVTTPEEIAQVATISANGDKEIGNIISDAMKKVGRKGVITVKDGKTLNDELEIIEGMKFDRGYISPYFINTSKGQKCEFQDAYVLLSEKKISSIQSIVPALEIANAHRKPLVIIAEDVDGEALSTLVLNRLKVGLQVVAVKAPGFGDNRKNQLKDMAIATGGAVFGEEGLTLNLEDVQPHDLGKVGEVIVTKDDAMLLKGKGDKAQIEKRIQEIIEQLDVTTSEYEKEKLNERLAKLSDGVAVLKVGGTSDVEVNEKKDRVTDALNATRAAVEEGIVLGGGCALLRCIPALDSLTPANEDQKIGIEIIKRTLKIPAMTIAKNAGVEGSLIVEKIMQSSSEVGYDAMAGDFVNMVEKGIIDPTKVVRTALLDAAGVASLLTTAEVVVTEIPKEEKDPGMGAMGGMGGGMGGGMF", "assay": "Co-immunoprecipitation of Hsp60 and IKKβ from Caco-2 cell lysates", "format": "cell-based", "settings": "LAP 1 μg/ml, 30 min", "description": "Caco-2 cells were treated with or without purified LAP (1 μg/mL) for 30 min, rinsed with cold PBS, and lysed in Nondiet P-40 (NP-40) lysis buffer (20 mM Tris HCl, pH 8,137 mM NaCl, 1% NP-40, 2 mM EDTA). The cell lysates were pre-cleared with 10 μl protein G agarose beads (MicroProtein Technologies) for 1 h and the lysates were incubated with 2 μg of anti-IKKβ, 2 μg of anti-Hsp60, rabbit serum or normal mouse serum overnight at 4° C. The lysates were further mixed with 20 μL protein G agarose beads for 3 h at 4° C. The beads were washed five times with 1 ml NP-40 lysis buffer. The protein precipitates were analyzed by immunoblotting, and the complexes were visualized by chemiluminescence assay."}, "Caco-2 cell monolayers": {"tested_on": "Caco-2 cell monolayers", "assay": "Transepithelial electrical resistance (TEER) of Caco-2 monolayers on Transwell inserts", "format": "cell-based, human"}, "IL-6": {"tested_on": "IL-6", "assay": "ELISA of IL-6 in Caco-2 cell supernatants", "format": "cell-based, human", "settings": "recombinant LAP 1 μg/mL, 8 h", "description": "A semi-quantitative membrane-based RayBio Human Inflammation Antibody Array kit (Ray Biotech) was used to analyze a panel of 40 inflammatory mediators in Caco-2 cell supernatant infected either with the WT or lap^− strain (MOI, ˜50) at 37° C. for 1 h. After killing the extracellular bacteria by gentamicin (50 μg/mL), the Caco-2 cells were incubated for an additional 7 h at 37° C. Recombinant LAP (1 μg/mL) from ClearColi was incubated for 8 h with Caco-2 cells. After immunoblotting, the reaction intensity was quantified using NIH ImageJ software. The data were normalized and expressed as the mean fold changes as a ratio of lap^−/WT±SEM. For the ELISA, Caco-2 cell supernatants were centrifuged (2,000 rpm at 4° C. for 10 min) following treatment as above, and the quantification of TNF-α and IL-6 in was performed using human TNF-α and IL-6 ELISA kits (Ray Biotech) as per manufacturer's instruction. The quantification of TNF-α and IL-6 protein levels was performed in the ileal tissue lysates from mice using mouse TNF-α and IL-6 ELISA kits (Ray Biotech) as per manufacturer's instruction."}, "NF-κB": {"tested_on": "NF-κB", "assay": "NF-κB luciferase reporter assay in RAW 264.7 cells", "format": "cell-based, murine", "description": "The NF-κB Luciferase reporter RAW 264.7 cell line (Novus Biologicals), which expresses an optimized Renilla luciferase reporter gene (RenSP) under the transcriptional control of an NF-κB response element, was used. The cells were seeded (1×10^5 cells/well) into 96-well luminometer-compatible plates for 16 h and then treated with analytes for 6 h. Media from each well were aspirated, and then 100 μL of ice-cold PBS was added to each well. The plates were then frozen solid at −80° C. overnight to completely lyse the cells, thawed back to room temperature, and luciferase assays were performed using the LightSwitch Luciferase assay kit (Novus Biologicals). Luminescence was measured as the relative luminescence units (RLU) using Spectramax (Spectramax, Molecular Devices) and reported as the relative fold change compared with that of the control cells that were treated with media alone. Recombinant human or mouse TNF-α (R&D Systems) and polymyxin B, LPS (E. coli Serotype R515, Re, TLR grade), and proteinase K (each from Sigma-Aldrich) were used."}, "NF-κB(p65)": {"tested_on": "NF-κB(p65)", "assay": "Confocal immunofluorescence of p65 localization in Caco-2 cells", "format": "cell-based, human", "settings": "30 min", "description": "For antibody labeling in cells, Caco-2 cells, were grown to 40-50% confluence in four-chambered slides (Millipore). At the end of the treatment, the cells were fixed with 3.7% formaldehyde in PBS for 20 min and permeabilized and blocked with PBS containing 0.3% Triton X-100 and 3% BSA (Sigma-Aldrich) for 1 h at room temperature and then incubated with respective antibodies overnight at 4° C. Following antibody incubation, the cells were washed with PBS (3 cycles, 5 min) and incubated with FITC or Alexa Fluor 555-conjugated secondary antibody for 2 h at room temperature. The nuclei were stained with DAPI (500 ng/ml; Cell signaling) and slides were mounted in ProLong antifade reagent (Cell Signaling).\nAll images were acquired using a Nikon A1R MP Multiphoton (Nikon) Confocal fluorescence microscope using a 60× oil immersion objective equipped with the Nikon Elements software (Nikon) at the Purdue Bioscience Imaging Facility. The X-Z and Y-Z cross-sections were produced by orthogonal reconstructions from z-stack scanning at 0.15 μm intervals taken with 60× objective in 5 μm thick paraffin embedded tissue section. Three-dimensional reconstructions were performed using Nikon elements software (Nikon)."}, "Caco-2 cells": {"tested_on": "Caco-2 cells", "assay": "Caco-2 cell viability assay (lactate dehydrogenase release)", "format": "cell-based, human", "settings": "Caco-2 cells treated with purified recombinant LAP", "description": "Caco-2 cell viability assay. To determine Caco-2 viability, cell culture supernatants from Caco-2 cells infected with WT, lap^−, lap^−lap^+, ΔinlA and ΔinlA inlA^+ strains (MOI 50, 2 h) grown on Transwell inserts or treated with the purified recombinant LAP for 24 or 48 h were assayed for lactate dehydrogenase release (Thermo Fisher Scientific). Two controls were included for calculation of percent cytotoxicity (LDH release). Low control consisted of supernatant from untreated Caco-2 cells with no exposure to bacteria. High control was from cells treated with 0.1% Triton X-100 for one minute."}}}
{"molecule": "B1", "values": [{"measurement": "interaction of Hsp60 with IKK-β", "setting": "Hsp60 / IKK-β", "result": "Hsp60 co-precipitation"}, {"measurement": "LAP concentration giving maximum reduction in TEER", "setting": "Caco-2 cell monolayers; apical treatment, 1-1000 ng/mL, 48-h period", "result": "500 to 1000", "unit": "ng/mL"}, {"measurement": "reduction in TEER", "setting": "Caco-2 cell monolayers; purified recombinant LAP added to both the basolateral and apical compartments", "result": "25±2", "unit": "%"}, {"measurement": "reduction in TEER", "setting": "Caco-2 cell monolayers; purified recombinant LAP added to the apical compartment", "result": "12±1", "unit": "%"}, {"measurement": "reduction in TEER", "setting": "Caco-2 cell monolayers; purified recombinant LAP added to the basolateral compartment", "result": "27±1", "unit": "%"}, {"measurement": "IL-6 production", "setting": "IL-6", "result": "significantly higher levels"}, {"measurement": "NF-κB activation ability after polymyxin-B treatment", "setting": "NF-κB", "result": "retained the NF-κB activation ability"}, {"measurement": "NF-κB activation after proteinase-K treatment", "setting": "NF-κB", "result": "abolished"}, {"measurement": "NF-κB activation ability after heat treatment", "setting": "NF-κB; 100° C., 10 min", "result": "abolished the NF-κB activation ability"}, {"measurement": "NF-κB activation", "setting": "NF-κB; purified proteins, LPS positive control", "result": "NF-κB activation in a concentration-dependent manner"}, {"measurement": "localization of p65", "setting": "NF-κB(p65); Caco-2 cells, LAP 1 μg/mL or TNF-α 10 ng/mL", "result": "in the nucleus"}, {"measurement": "localization of p65", "setting": "NF-κB(p65); Hsp60 knocked-down Caco-2 cells", "result": "retained p65 within the cytoplasm"}, {"measurement": "localization of p65", "setting": "NF-κB(p65); shRNA vector control Caco-2 cells", "result": "nuclear translocation of p65"}, {"measurement": "cytopathic or cytotoxic effects (LDH assay)", "setting": "Caco-2 cells", "result": "without causing any cytopathic or cytotoxic effects"}]}
